Measured values as given in the nanobody polyreactivity screen of Harvey et al. (2022).

assay: yeast display, Sf9 membrane polyspecificity reagent, FACS + sequencing; frameworks hold sequencing errors
Outline: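 Galactose induction of a Saccharomyces cerevisiae BJ5465 synthetic nanobody display library ran 36–48 hours. The cells were then stained for 1 hour at 4 °C with 10% biotinylated, detergent-solubilized Sf9 membrane reagent, pulled down on streptavidin microbeads and FACS-sorted into low and high (top ~1%) gates on expression and reagent-binding fluorescence. Labels for polyreactivity follow the gate of origin.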

Sequence | polyreactivity (PSR sort gate)
QVQLVESGGGLVQAGGSLRLSCAASGFTFWYYAMGWYRQAPGKERELVAAISSGSSTNYADSVKGRFTISRDNPKNTVYLQMNSLKPEDTAVDYCAADKYPSSPYVGDVDYWGQGTQVTVSS | high polyreactivity
QVQLVESGGGLVQAGGSLRLSCAASGRIFQIYAMGWYRQAPGKERELVAAISNRGGSTYYADSVKVRFTISRDNAKNTVYLQMNSLKPEDTAVYYFNATTGYGGYNYWGQGTKVTVSS | low polyreactivity
QVQLVESGGGLVQAGGSLRLSCAASGRIFWTYAMGWYRQAPGKERELVAAINSSDGTYYADSVKGRFTISRDNAKNTVYLQMNSLKPEDTAVYYCNADRDALVGYDYDYWGQVTQVTVSS | low polyreactivity
QVQLVESGGGLVQAGGSLRLSCAASGTTFGRYAMGWYRQAPGKERELVAAITRSGGRTYYADSVKERFTISRDNAKNTVYLQMNSLIPEDTAVYYCAAVGNLYYTSLWQYDYWGQGTQVTVSS | high polyreactivity
QVQLVESGGGLVQAGGSLRLSCAASGGTFRGYAMGWYRQAPGKERELVAAISRGTSTNYADSVKGRFTISRDNAKNTVYLHLNSLKPEDTAVYYCNAAKRGWYYDYYYWGQGTQVTVSS | high polyreactivity
QVQLVESGGGLVQAGGSLRLSCAASGITFPLYAMGWYRQAPGKERELVAAITSTGGTTYYADSVKGRFTISRDNAKNTVYLQMNSLKPEDTAVYYCAAEWLVYGYQRGYYYWGQGTQVTVSS | high polyreactivity
QVQLVESGGGLVQAGGSLRLSCAASGRIFNRYAMGWYSQAPGKERELVARITSSGSTNYADSVKGRFTISRDNAKNTVYLQMNSLKPEDTAVYYCAARKLFIPKYYYWGQGTQVTVSS | high polyreactivity
QVQLVESGVGLVQAGGSLRLSCAATGSILSINGMGWYIPAPGKERELVATIDGSDGSTFYADSVKGRFTISRDNAKNTVFLQMNSLNPEDTEVYYCADENFWQTKEYDYWGQGTQVTVSS | low polyreactivity
QVQLVESGGGLVQAGGSLRLSCAASGSTLARYAMGWYRQAPGKERELVAAISSDGRTYYADSVKGRYTISRDNAKNTVYLQIYSLKPEDTAVYYCATLRPYAYPQYDSWGQGTQVTVSS | high polyreactivity
QVQLVESGGGLVQAGGSLRLICAASGSTFWYYSMGWYRQAPGKERELVAAITRAGSTNYADSVKGRFTISRDNAKNTVYLQMNSLKPEDTAVYYCAADQYHYWYYLGGYDYWGQGTQVTVSS | high polyreactivity
QVQLVESGGGLVQARGSLRLSCAASGRNFADYAMGWYRQAPGKERELVAAIDWSDGSTKYADSVKGRFTISRDNAKNTVYLQINSLKPEDTAVYYCGADYWPRDGLGWWYDYWGQGTQVTVSS | low polyreactivity
QVQLVESGGGLVQAGGSLRLSCAASGLTIWANTKGWYRQAPGKERELVAAISLSDGSTYYADSVKGRFTISRDNAKNTVYVQMNSLKPEDTAVYYCAARVQHYLATDDYWGQGTQVTVSS | low polyreactivity
QVQLVESGGGLVQAGGSLRLSCAASGITIYGNAMGWYRQAPGKERELVAAITFSGGITYYADSVKGRFTISRDNAKNTVYLQMNSLKPEDTAVYYCATDPIGGWTRPQRYGDDYWGQGTQVTVSS | low polyreactivity
QVQLVESGGGLVQAGGSLRLSCAASGSTFYYYAMGWYRQAPGKERELVAAITYSGGGTYYADSVKGRFTISRDNAKNTVYLQMNSLKPEDTAVYYCAKTIAVNTWYYYWGQGTQVTVSS | low polyreactivity
QIQLVESGGGLVQAGGSLRLSCAASGFTFYANAMGWYRQAPGKERELVAAISSSGGSTYYADSVKGRFTISRDNAKNTVYLQMNSLKPEDTAVYYCNVYSRHWYRYEFDYWGQGTQVTVSS | high polyreactivity
QVQLVESGGGLVQAGGSLRLSCAASGITFNPNAMGLYRQAPGKERELVAVITYRGGSTYYADSVKGRFTISRDNAKNTVYLQMNSLKPEDTAVYYCAAQYIGWHLYWYDYWGQGTQVTVSS | low polyreactivity
QDQLVESGGGLVQAGGSLRLSCAASGSTFYNYAMAWYRQAPGKEREFVAAISSGGGITYYADSVKGRFTISRDNAKNTVFLQMISLIPEDTAVYYCNAKMISGISTADSRSRIYDYWGHGTQVTVSS | high polyreactivity
QVQLVESGGGLVQAGGSFRLSCPASGGPVDTYVMGCYRQARGKERELVAVITRGASTYYADSVKGRFTITRDNAKNTVYLQNNRLKPEDTAVYYCAAAFYSPDFYRFWYSFDYWGQGTQVTVSS | low polyreactivity
QVQLVESGGGLVQAGGSLRLSCAASGSIFQGNAMGWYRQAPGKERELVAGITRSGGSTYYADSVKGRFTISRDNAKNTVYLQMNSLKPEDTAVYYCAADYSSDGDYWGQGTQVTVSS | low polyreactivity
QVQLVESGGGLVQAGGSLRLSCAASGRTFRYYAMGWYRQAPGKERELVAAISSGGRTNYADSVKGRFTISRDNAKNTVYLQMNSLKPEDTAVYYCAARNTRFWYQNNLYDYWGQGTQVTVSS | high polyreactivity
QVQLVESGGGLVQAGGSLRLSCAASGFTFGPYAMGWYRQAPGKERELVAASSQSGGRTSYADSVKGRFTISRDNAKNTVYLPMNSLKPEDTAVYYCAKRAYGYRSIYRMDYWGQGTQVTVSS | high polyreactivity
QVQLVESGGGLVQAGGSLRLSCAASGSIFGDNTRGWYRQAPGKERELVAAISWRGGSTYYADSVKGRFTISRDNSKNTVYLQMNSLKPEDTAVYYCIGGPGGYDYWGQGTQVTVSS | low polyreactivity

Sequence | polyreactivity (PSR sort gate)
QVQLVDSGGGLVQAGGSLRLSCAASGSTFRRYAMGWYRQAPGKERELVAAITTADITNYADSVKGRFTISRDNAKNTVYLQMNSLKPEDTAVYYCAAPVAYRGSRNFIYRYNYWGQGTQVTVSS | high polyreactivity
QVQLVESGGGLVQAGGSLRLSCAASGSIFPHNAMGWYRQAPGTERELVASITSRGGITYYADSVKGRFTISRDNAKNTVYLQMNSLKPEDTAVYYCAADLYIYPYDYWGQGTQVTVSS | low polyreactivity
QVQLVESGGGLVQAGGSLRLSCAASGSTFTPYAMGWYRQAPGKERELVASITIGGSTYADSVKGRFTISRDNAKNTVYLQMNSLKPEDTAVYSCNADWNWYPFLYSRMDYWGQGTQVTVSS | low polyreactivity
KVQLVESGAGLVQAGGSLRLSCAASGSTFAQYAMGWYRQAPGKERELVAAISRGGGSTYYADSVKGRFTISRDTAKNTVYLQMHSLKPEDTAVYYCAADPRYRVTLGFDYWGQGTQVTVSS | high polyreactivity
QVQLVESGGGLVQAGGSLRLSCAASGYTFRSYMGWYRQAPGKEREFVADISTSVTNTYYADSVKGRFTISRDNAKNTVYLQMNSLKPEDTAVYYCAAGVQSVYNGEPGIILEFDYWGQGTQVTVSS | low polyreactivity
QVQLVESGGGLVQAGGSLRLSCAASGSTFSANAMGWYRPAPGKERELVAAISRSGTRTYYADSVKGRFTISRDNAKNTVYLQMNSLKPEDTAVYYCAAYVYQYGYDYWGQGTQVTVSS | high polyreactivity
QVQLVESGGGLVQAGGSLRLSCAASGFISYFYTMGWYRPAPGKERELVAAISNTGDRTYYADSVKGRFTISRDNAKNTVYLQMNSLKPEDTAVYYCNAVVRGTYWQSFDYWGQGTQVTVSS | high polyreactivity
QDQLVESGGGLVQAGGSLRLSCAASGIIFYGYGMGWYRPAPGKERELVAAISRSGGSTYYADSVKGRFTISRDNAKNTVYLQMNSLKPEDTAVYSCAASGVTYDYWGQGTQVTVSS | high polyreactivity
QVQLVESGGGLVQAGGSLRLSCAASGLTFGWYTMGWYRQAPGKERELVAAISWSGGSTYYADSVKGRFTISRDNAKNTVYLQMNSLKPEDTAVYYCAADQSTVLDVGSWGQGTQVTVSS | low polyreactivity
QVQLVESGGGLVHAGGSLRLSCAASGIILSDNSMGWYRQAPGKEREVVAAITGSGGSTYYADSVKGRFTISRDNAKNTVYLQMNSLKPEDTAVYYCAADGPYGYYYGHYGYWGQGTQVTVSS | low polyreactivity
QVQLVESGGGLVQAGGSLRLSCAASGFYLNAMGWYRQAPGKERELVATITSSATNTYYADSVKGRFTISRDNAKNTVYLQMNSLKPEDTAVYYCNARYTSHTHADGVYLYDYWGQGTQVTVSS | low polyreactivity
QVQLVESGGGLVQAGGSLRLSCAASGSIFRRYAMGWYRQAPGKERELVAAITNGGGSTYYADSVKGRFTISRDNAKNTVYLQMNSLKPEDSAVYYCARRLASNYGAYDYWGQGTQVTVSS | low polyreactivity
QVQLVESGGGLVQAGGSLRLSCAASGRTFPAYTMGWYRPAPGKERELVAAIRWSGGRTRYADSVKGRFTISRDNAKNTVYLQMNSLKPEDTAVYYCAAYRLSKPFYKYDYWGQGTQVTVSS | high polyreactivity
QVQLVESGRGLVQAGGSLRLSCAASGRIFSSNAMVWYRQAPGKERELVAAISQGGGSTYYADSVKGRFTISRDNAKITVYLQMNSLIPEDTAVYYCAAETGYSGYDDSAYEYWGQGTQVTVSS | low polyreactivity
QVQLVESGGGLVQAGGSLRLSCAASGSTFADYAMGWYRQAPGKERELVAAITSSGGSTYYADSVKGRFTISRDNAKYTVYLQMKSLKAAETAGYYCNARVPRLLFVRFYGMDYWGQGNQVTVSS | low polyreactivity
QVQLVESGGGLVQAGGSLRLSCAASGRIFVSNAMGWYRQAPGKERELVAAISSSGGSTYYADSVKGRFTISRDNAKNTVYLQMNSLKPEDTAVYYCNVLGQRYYPSGRNYWGQGTQVTVSS | high polyreactivity
QVQLVESGGGLVQAGGSLRLSCAASGFIFAWNAMGWYRLAPGKERELVAAITSAGSTKYADSVKGRFTISRDNAKNTVYLQMNSLKPEDTAVYYCAAARFRIYCGQGTQVTVSS | high polyreactivity
QVQLVESGGGLVQAGGSLRLSCAASGITFYVYALRWYRQAPGKERELVASISWIGGRTYYADSVKGRFTISRDNAKNTVYVQMNSLKPEDTAVYYCAARAYSYWSGLDYWGQGTQVTVSS | high polyreactivity
QVQLVESGGGLVQAGGSLRLSCAASGSIFYRNTMGWYRQAPGKERELVAAITTSGGSTYYADSVKGRFTISRDNAKNTVYLQMNSLKPEDTAVYYCAARTWERWYRYYYWGQGTQVTVSS | high polyreactivity
QVQLVESGGGLVQAGGSLRLSCAASGSIFLYNTMGWYRQAPGKERELVAAITSGGNTNYADSVKGRFTISRDNAKNTVYLQMNSLKPEDTAVYYCNVDLKAWLPDGGSVDYWGQGTQVTVSS | low polyreactivity
QVQLVESGGGLVQAGGSLRLSCAASGSIVENMGWYRQAPGKERELVAAISSSGDSTYYADSVKGRFTISRDNAKNTVYLQMNSLKPEDTAVYYCAADFYYYKKQYDYWGQGTQVTVSS | low polyreactivity
